Laboratory results published in US20090215639A1.

Target: human full length IgG1 (Calbiochem) (human)
Test: BIAcore SPR, IgG1 immobilized, soluble receptor injected

Row | Substance | fold faster koff against FcγRIIIaV158 [fold] | koff [s⁻¹]
1 | FcγRIIIa F158 (receptor) | 6 | 0.0858
2 | FcγRIIIa V158 (receptor) |  | 0.0139
